{"source": "patent US20250262210A1", "about": "(TRUSTEES OF COLUMBIA UNIVERSITY IN THE CITY OF NEW YORK, published 2025)", "binders": {"B1": {"name": "LZTR1 R810W-FLAG (other, human, UniProt Q8N653 1-840, looked up)", "chain": "MAGPGSTGGQIGAAALAGGARSKVAPSVDFDHSCSDSVEYLTLNFGPFETVHRWRRLPPCDEFVGARRSKHTVVAYKDAIYVFGGDNGKTMLNDLLRFDVKDCSWCRAFTTGTPPAPRYHHSAVVYGSSMFVFGGYTGDIYSNSNLKNKNDLFEYKFATGQWTEWKIEGRLPVARSAHGATVYSDKLWIFAGYDGNARLNDMWTIGLQDRELTCWEEVAQSGEIPPSCCNFPVAVCRDKMFVFSGQSGAKITNNLFQFEFKDKTWTRIPTEHLLRGSPPPPQRRYGHTMVAFDRHLYVFGGAADNTLPNELHCYDVDFQTWEVVQPSSDSEVGGAEVPERACASEEVPTLTYEERVGFKKSRDVFGLDFGTTSAKQPTQPASELPSGRLFHAAAVISDAMYIFGGTVDNNIRSGEMYRFQFSCYPKCTLHEDYGRLWESRQFCDVEFVLGEKEECVQGHVAIVTARSRWLRRKITQARERLAQKLEQEAAPVPREAPGVAAGGARPPLLHVAIREAEARPFEVLMQFLYTDKIKYPRKGHVEDVLLIMDVYKLALSFQLCRLEQLCRQYIEASVDLQNVLVVCESAARLQLSQLKEHCLNFVVKESHFNQVIMMKEFERLSSPLIVEIVRRKQQPPPRTPLDQPVDIGTSLIQDMKAYLEGAGAEFCDITLLLDGHPRPAHKAILAARSSYFEAMFRSFMPEDGQVNISIGEMVPSRQAFESMLRYIYYGEVNMPPEDSLYLFAAPYYYGFYNNRLQAYCKQNLEMNVTVQNVLQILEAADKTQALDMKRHCLHIIVHQFTKVSKLPTLWSLSQQLLLDIIDSLASHISDKQCAELGADI", "notes": "Stably expressed in U87 cells by lentivirus; also called LZTR1-FLAG-R810W; LZTR1 RW; not shown: FLAG tag"}}, "target": "T1, ATAD2 (human, UniProt Q6PL18 1-1390, limits assumed)", "T1 sequence (looked up)": "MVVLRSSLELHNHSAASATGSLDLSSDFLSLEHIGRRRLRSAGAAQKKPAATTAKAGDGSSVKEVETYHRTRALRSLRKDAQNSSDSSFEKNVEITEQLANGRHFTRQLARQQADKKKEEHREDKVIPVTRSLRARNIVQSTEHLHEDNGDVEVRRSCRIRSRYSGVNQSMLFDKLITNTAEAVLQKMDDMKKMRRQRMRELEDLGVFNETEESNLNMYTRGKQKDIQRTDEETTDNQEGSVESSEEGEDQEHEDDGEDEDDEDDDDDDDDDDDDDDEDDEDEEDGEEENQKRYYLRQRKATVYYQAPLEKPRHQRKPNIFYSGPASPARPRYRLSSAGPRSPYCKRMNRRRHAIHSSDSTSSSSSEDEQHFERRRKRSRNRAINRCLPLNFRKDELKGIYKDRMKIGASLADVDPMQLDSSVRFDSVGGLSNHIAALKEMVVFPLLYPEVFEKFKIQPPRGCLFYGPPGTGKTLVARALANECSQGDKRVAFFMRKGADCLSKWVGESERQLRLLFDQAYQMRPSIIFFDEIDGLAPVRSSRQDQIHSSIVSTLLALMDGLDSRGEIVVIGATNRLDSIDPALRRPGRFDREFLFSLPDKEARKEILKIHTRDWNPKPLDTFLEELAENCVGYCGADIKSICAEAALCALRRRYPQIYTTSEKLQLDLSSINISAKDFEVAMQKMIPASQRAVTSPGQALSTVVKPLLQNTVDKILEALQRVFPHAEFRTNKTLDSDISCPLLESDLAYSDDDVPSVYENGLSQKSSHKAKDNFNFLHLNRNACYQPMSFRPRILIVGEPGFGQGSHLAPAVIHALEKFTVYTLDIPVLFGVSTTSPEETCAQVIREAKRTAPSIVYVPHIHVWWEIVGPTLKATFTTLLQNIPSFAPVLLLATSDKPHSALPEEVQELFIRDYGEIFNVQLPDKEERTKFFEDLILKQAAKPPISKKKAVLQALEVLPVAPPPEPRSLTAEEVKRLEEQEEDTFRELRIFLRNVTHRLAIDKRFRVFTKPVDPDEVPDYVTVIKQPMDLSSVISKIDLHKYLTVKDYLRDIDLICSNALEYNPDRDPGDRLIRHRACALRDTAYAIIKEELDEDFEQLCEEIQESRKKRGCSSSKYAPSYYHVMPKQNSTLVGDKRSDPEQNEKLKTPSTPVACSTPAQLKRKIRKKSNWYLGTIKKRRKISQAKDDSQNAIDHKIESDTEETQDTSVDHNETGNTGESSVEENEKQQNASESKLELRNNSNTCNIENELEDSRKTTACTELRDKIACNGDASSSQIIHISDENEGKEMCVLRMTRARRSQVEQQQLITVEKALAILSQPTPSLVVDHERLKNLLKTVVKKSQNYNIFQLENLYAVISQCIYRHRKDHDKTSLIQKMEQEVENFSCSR", "test": "IP/MS, LZTR1 R810W-FLAG, U87", "outline": "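Gel slices were reduced with 5 mM DTT, alkylated with 11 mM IAA and digested overnight at 37° C. with trypsin. Peptides were analysed on an Orbitrap Fusion Tribrid by LC-MS/MS.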"}
{"binder": "B1", "values": [{"measurement": "binding result", "result": "binds"}]}
